Results: patent publication US20230025280A1, “PH RESPONSIVE COMPOSITIONS, FORMULATIONS, AND METHODS OF IMAGING A TUMOR” (ONCONANO MEDICINE, INC, priority 2019, published 2023)
Several values for one entry are separate records, joined by “and”; a condition that tells them apart may be missing. Equal entries are not always repeated.

Experiment: Phase 1 (1a/1b) pharmacokinetics: plasma concentrations after single IV dose (validated direct fluorescence reader assay), noncompartmental analysis
Assay type: in vivo, human
Conditions: 1.2 mg/kg
From the text: Phase 1 is a single-Principal Investigator, non-randomized, open-label, single-arm, cross-sectional study to evaluate the safety, PK profile, and imaging feasibility of Compound 1 in patients with solid cancers who require surgical excision. The main purpose of this study was to investigate the safety, PK, and feasibility of Compound 1 as an intra-operative optical imaging agent to detect tumors and metastatic lymph nodes in solid cancers. The study was intended to investigate the optimal dose range of Compound 1 for an adequate TBR and CNR of fluorescence obtained intraoperatively at 24 (±8) hours post dosing and with ex vivo specimens using ICG compatible cameras and imaging devices.
Phase 1 enrolled 30 patients with solid cancers (HNSCC, breast cancer, esophageal cancer, or colorectal cancer) who have a biopsy-confirmed diagnosis of respective tumor types and are scheduled to undergo surgical resection of the tumor. The study design included a standard 3+3 design for the dose-escalation portion (Phase 1a; N=18 maximum) followed by a dose-expansion portion (Phase 1b; N=15). All patients received a single I.V. dose of Compound 1, followed by routine surgery approximately 24 hours after infusion of Compound 1.
Phase 1a was a dose-finding study performed in 5 cohorts of 3 patients each. The dose levels evaluated were […], and 1.2 mg/kg, in this sequence. Inter-cohort dose escalation took place after the last patient in the previous cohort completed the Day 10 safety assessment. Safety, PK, and imaging feasibility were evaluated in both the Phase 1a and 1b portions of the study. Patient safety is assessed during the study and for up to 10 days post-dose.
Study design: Single Compound 1 IV dose was administered as a 1-5 minute IV infusion to patients in five cohorts (0.1, 0.3, 0.5, 0.8, and 1.2 mg/kg) with three patients per cohort in Phase 1a and 15 patients at a dose of 1.2 mg/kg in Phase 1b. Patient demographic information including tumor types is presented in Table 4 and 5 for Phase 1a and Table 5 for Phase 1b. Intertek Pharmaceutical Services (San Diego, Calif.) determined Compound 1 plasma concentrations using a validated direct fluorescence reader assay. Pacific BioDevelopment (Davis, Calif.) performed the PK analysis.
Sample collection: Blood samples were collected prior to infusion and at 10 minutes and 0.5, 1, 3, 8, 24, 48, 72, and 240 hours after infusion.
Analysis: Plasma concentration versus time profiles were generated for each patient. Pharmacokinetic parameters were estimated using Phoenix WinNonlin (version 8.0). According to SOP, concentrations reported as BQL were set to 0 except for the 0.5 h sample for subject #ON1102, which was set to LLOQ/2 ([…] value used in parameter calculations) and the 24 and 48 h samples.
If the coefficient of determination for the terminal slope estimation was less than 0.8, T1/2 was not reported (NR). AUC extrapolated to infinity is not reported for any data set because in all cases the % extrapolated AUC was greater than 20% and thus the AUCinf estimate would not be reliable. The concentration at 10 minutes, the first time point measured (C10m), was also reported for each patient.
The area under the plasma concentration versus time curves from dosing to the last time point with a measurable concentration (AUClast) was estimated by the linear trapezoid method. The last three or more time points were used to estimate the elimination rate constant (λz) which was used to estimate the terminal-phase half-life (T1/2) and AUC from zero to infinity (AUCINF) from the following equations: […]

PEO90-140-b-P(DBA60-150-r-ICG0-3-r-AMA0-3) [Compound 1]
Differences in pharmacokinetic parameters based on tumor type (Phase 1a and Phase 1b): no apparent differences
T1/2 (ALL cancer types, Mean, N 16): 44.5 h
AUC0-24 hr (ALL cancer types, Mean, N 18): 615 µg·h/mL
AUCall (ALL cancer types, Mean, N 18): 1670 µg·h/mL
AUClast (ALL cancer types, Mean, N 18): 1100 µg·h/mL
C10 m (ALL cancer types, Mean, N 18): 33.0 µg/mL
Cmax (ALL cancer types, Mean, N 18): 34300 ng/mL
Tmax (ALL cancer types, Mean, N 18): 0.834 h
T1/2 (ALL cancer types, Median, N 16): 40.5 h
AUC0-24 hr (ALL cancer types, Median, N 18): 615 µg·h/mL
AUCall (ALL cancer types, Median, N 18): 1170 µg·h/mL
AUClast (ALL cancer types, Median, N 18): 997 µg·h/mL
C10 m (ALL cancer types, Median, N 18): 32.4 µg/mL
Cmax (ALL cancer types, Median, N 18): 33600 ng/mL
Tmax (ALL cancer types, Median, N 18): 0.500 h
AUC0-24 hr (BC, Mean, N 5): 592 µg·h/mL
AUCall (BC, Mean, N 5): 1730 µg·h/mL
AUClast (BC, Mean, N 5): 1150 µg·h/mL
C10 m (BC, Mean, N 5): 31.2 µg/mL
Cmax (BC, Mean, N 5): 32900 ng/mL
T1/2 (BC, Mean, N 5): 51.0 h
Tmax (BC, Mean, N 5): 0.634 h
AUC0-24 hr (BC, Median, N 5): 574 µg·h/mL
AUCall (BC, Median, N 5): 1170 µg·h/mL
AUClast (BC, Median, N 5): 1020 µg·h/mL
C10 m (BC, Median, N 5): 33.0 µg/mL
Cmax (BC, Median, N 5): 33000 ng/mL
T1/2 (BC, Median, N 5): 45.5 h
Tmax (BC, Median, N 5): 0.500 h
AUC0-24 hr (BC, individual subjects): 630 µg·h/mL and 693 µg·h/mL and 574 µg·h/mL and 562 µg·h/mL and 502 µg·h/mL
AUCall (BC, individual subjects): 1170 µg·h/mL and 3190 µg·h/mL and 1020 µg·h/mL and 1120 µg·h/mL and 2120 µg·h/mL
AUClast (BC, individual subjects): 1020 µg·h/mL and 1740 µg·h/mL and 891 µg·h/mL and 968 µg·h/mL and 1110 µg·h/mL
C10 m (BC, individual subjects): 36.5 μg/mL and 33.0 μg/mL (2×) and 28.0 μg/mL and 25.5 μg/mL
Cmax (BC, individual subjects): 37700 ng/mL and 34300 ng/mL and 33000 ng/mL and 32000 ng/mL and 27600 ng/mL
T1/2 (BC, individual subjects): 34.5 h and 83.0 h and 30.6 h and 45.5 h and 61.4 h
Tmax (BC, individual subjects): 1.00 h and 0.170 h and 0.500 h
AUC0-24 hr (CRC, Mean, N 3): 677 µg·h/mL
AUCall (CRC, Mean, N 3): 1790 µg·h/mL
AUClast (CRC, Mean, N 3): 1150 µg·h/mL
C10 m (CRC, Mean, N 3): 35.5 µg/mL
Cmax (CRC, Mean, N 3): 36400 ng/mL
T1/2 (CRC, Mean, N 3): 46.3 h
Tmax (CRC, Mean, N 3): 0.557 h
AUC0-24 hr (CRC, Median, N 3): 684 µg·h/mL
AUCall (CRC, Median, N 3): 1090 µg·h/mL
AUClast (CRC, Median, N 3): 971 µg·h/mL
C10 m (CRC, Median, N 3): 35.8 µg/mL
Cmax (CRC, Median, N 3): 36400 ng/mL
T1/2 (CRC, Median, N 3): 33.4 h
Tmax (CRC, Median, N 3): 0.500 h
AUC0-24 hr (CRC, individual subjects): 721 µg·h/mL and 684 µg·h/mL and 626 µg·h/mL
AUCall (CRC, individual subjects): 3350 µg·h/mL and 939 µg·h/mL and 1090 µg·h/mL
AUClast (CRC, individual subjects): 1780 µg·h/mL and 684 µg·h/mL and 971 µg·h/mL
C10 m (CRC, individual subjects): 38.6 µg/mL and 32.1 µg/mL and 35.8 µg/mL
Cmax (CRC, individual subjects): 38600 ng/mL and 34100 ng/mL and 36400 ng/mL
T1/2 (CRC, individual subjects): 77.9 h and 33.4 h and 27.7 h
Tmax (CRC, individual subjects): 0.170 h and 1.00 h and 0.500 h
AUC0-24 hr (EC, Mean, N 3): 659 µg·h/mL
AUCall (EC, Mean, N 3): 1570 µg·h/mL
AUClast (EC, Mean, N 3): 1170 µg·h/mL
C10 m (EC, Mean, N 3): 34.7 µg/mL
Cmax (EC, Mean, N 3): 35800 ng/mL
T1/2 (EC, Mean, N 3): 37.1 h
Tmax (EC, Mean, N 3): 0.723 h
AUC0-24 hr (EC, Median, N 3): 606 µg·h/mL
AUCall (EC, Median, N 3): 1460 µg·h/mL
AUClast (EC, Median, N 3): 1270 µg·h/mL
C10 m (EC, Median, N 3): 32.6 µg/mL
Cmax (EC, Median, N 3): 32600 ng/mL
T1/2 (EC, Median, N 3): 34.4 h
Tmax (EC, Median, N 3): 1.00 h
AUC0-24 hr (EC, individual subjects): 606 µg·h/mL and 787 µg·h/mL and 585 µg·h/mL
AUCall (EC, individual subjects): 2150 µg·h/mL and 1460 µg·h/mL and 1100 µg·h/mL
AUClast (EC, individual subjects): 1280 µg·h/mL and 1270 µg·h/mL and 961 µg·h/mL
C10 m (EC, individual subjects): 31.4 µg/mL and 40.0 µg/mL and 32.6 µg/mL
Cmax (EC, individual subjects): 32600 ng/mL and 42200 ng/mL
T1/2 (EC, individual subjects): 43.3 h and 34.4 h and 33.6 h
Tmax (EC, individual subjects): 1.00 h and 0.170 h
T1/2 (HNSCC, Mean, N 5): 41.4 h
AUC0-24 hr (HNSCC, Mean, N 7): 585 µg·h/mL
AUCall (HNSCC, Mean, N 7): 1620 µg·h/mL
AUClast (HNSCC, Mean, N 7): 1020 µg·h/mL
C10 m (HNSCC, Mean, N 7): 32.5 µg/mL
